Data published in the DeepSol protein solubility set.

Test: soluble on expression in E. coli; label from the status in PepcDB or PDB records

Sequence	soluble on expression in E. coli
MVRQPAVAGQFYTDDPRRLREELGHLIRPVPAPRRVTGVIAPHAGYMYSGAIAGAVYGSIVIPRTVVILGPNHHGLGAAASLYPDGTWLSPLGEVPIEQRLSSLVLEHVPQAEPDVIAHRFEHSLEVQVPFLRYLNSDVAIVPMCLGGGGYGWCRQVGEGLARAIAAYGEEVLIVASSDMTHYESAESARLKDEAALSCVLALDAEGLLKVCRQRGITMCGVIPSTVMLVAARELGASRAELIRYGTSGDVTGDNRQVVAYAAVAVYLEHHHHHH	not soluble
AKVEVGDEVGNFKFYPDSITVSAGEAVEFTLVGETPHNIVFDIPAGAPGTVASELKAASMDENDLLSEDEPSFKAKVSTPGTYTFYCTPHKSANMKGTLTVK	soluble
MGHHHHHHSHMPATLLRAVARSHHILSKAHQCRRIGHLMLKPLKEFENTTCSTLTIRQSLDLFLPDKTASGLNKSQILEMNQKKSDTSMLSPLNAARCQDEKAHLPTMKSFGTHRRVTHKPNLLGSKWFIKILKRHFSSVSTETFVPKQDFPQVKRPLKASRTRQPSRTNLPVLSVNEDLMHCTAFATADEYHLGNLSQDLASHGYVEVTSLPRGTSS	not soluble
MGHHHHHHGGHMSLPKQIDHEKRRKQIAEATWRVILERGMEGASARNIAKEAGLSLGALRHYFSTQDELLAFAMKLVQEKVTDRIKDIAVRDLLPKEKVLQILLEMVPTNEETIREMEVWFAFTAYARHKKDMFDASHDGIFSGMRNLIAYLDESDLLKQNADKDIEAERLYALVDGLALHAMLDPVRVNKDRIKRVIMQHVESICVEDTRETQKRHPEGGS	soluble
DFEDVHIAEARVDVPSTWRDQIVNTNAVATETHPLKCAEVETQTGSKDNQGTQTDDAGGGRPPSPSKVQASGVADFMAKVEGMVAGELVKATEEHEVLEPFTRAADDEQEPATCIHYLSPFQQDAA	not soluble
SNAFHPVYSVQLEQKLVEKFNLKRALISLDQPNTNEQRKQVAALVSSYLNNNLQEGMAVAVGQGQNVAAVADHAGIVTQRNARFVSAIGGTHRSGDIINADHICRRLAKKYGGSSETLYAPAYVNDPSLRSAFMEHATIKETLSQARKAEFALVGIGDMDENSHMVKLGFFTPKEFVEARLNDGIVGDIGGFDFFKLDGTDADTLMRGRVIGLEMEDLRQIPNVVAMASESRKALSIMGALRTGVIDVLATSVSCAMALLNLAENEE	soluble
MGHHHHHHSHMTSGPGGRSAAAGGRKENHQWYVCNREKLCESLQAVFVQSYLDQGTQIFLNNSIEKSGWLFIQLYHSFVSSVFSLFMSRTSINGLLGRGSMFVFSPDQFQRLLKINPDWKTHRLLDLGAGDGEVTKIMSPHFEEIYATELSETMIWQLQKKKYRVLGINEWQNTGFQYDVISCLNLLDRCDQPLTLLKDIRSVLEPTRGRVILALVLPFHPYVENGGKWEKPSEILEIKGQNWEEQVNSLPEVFRKAGFVIEAFTRLPYLCEGDMYNDYYVLDDAVFVLKPV	not soluble
MGSDKIHHHHHHMTETTSQMRREVLEIPAAIDRLLSQGTPEIARIAAAVAKADPRFAVTVARGSSDHACTFLKYALELELGLPVASIGPSVASIYGAQLKLANSITLSVSQSGKSPDIVAMSRAATEGDSFTVAITNDAQSPLSDASSHTIDIHAGPEISVAATKTFVTSAAAGLILLAEWKDDDILRAALRGLPECLSKAATHDWPDLRAAIGSASSLFTLGRGPAWAISNEAALKFKETCQIHAESYSSAEVLHGPVSIVGGGFPVLCFASGDAAEASVTDVADQLAAKGARVFVTSDKADTAHCLPHVRTGHPLTDPLALIVSFYAMIEKVAAERGVNPDAPRHLNKVTETV	not soluble
MGSDKIHHHHHHMKIEGLFNKYYNSFTANDKYICECILNHKEDCIKLSIDEFADKYHISTSALSRFAQKLQLPGYSELRVIIRLNETEVEYKNQSKHQLMDCYNKVIDDIEKKDCSIMFERMKKANRIIVFGEGYSQERVAKEMKRIFLPTGKIIYDVYGYDMIQALNHFIKTDDMIFFISLNGDASTIIDFAKEMRMKGIYMVSITKMISNPLARLCDENLYIQSISISVDKQLDYDVTTPYFILIELLYIKYKMYLESEHIPRK	not soluble
MTVTLTCRFKLELSKDQKQQFLDIATAYTNAVNYVLEQNLKDKSTNVKKLHRLYYKTIREDFDLPAQMAINVNRDVSAMYKTLWAQFKELKRRKPDSKAVKKFWDKPPKRKSLIVKYTYNRTASFKKINGEWHASLSTLQGRIKWIPMKGWSKHFEYLKSCKIGDPILTYDKSSKTFFLLVPVTLEVQEHQPKEIVGVDVGERHIAAVASTKGTRYLIDLPEEFKQRKQHYQRLRSELMSKGTRSAKRKLARISRREKRFTENVLHIIAKKLTTSHPGARFVLEDLTQIRANRITYRGKDKEARRQSEQWPFASLQQKIEYKAKLYYGVQSEKVDPSYTSQTCPRCGHVSKENRPDHGERFVCQSCGYEEHADIVGAINIALRVLAKDQQVNLEKLLGAVVSRPDAPRLG	not soluble
MGSDKIHHHHHHMDIKQLKFLIALDQTRHFGQAAALCHITQPTLSMRLRNLEDELDLVLVKRGQRFEGFTEAGERILAWARTLLAAHDGLQAEAASCRGQVVGSLRLGTVPLASFNPMHLLLPLREKYPELHFQLSSLSSEQVIDGLSRNQLDLGICYLDQVNTSFFEVIELGTTTMGLLHDTRHFQFTSDRLRWDELGDIPLGLLSKGMHYRQSLDLSFRSRGLEPNAVLESDSSFQLIQAINTGICCAIMPLDCGLEDLSEHLRIVPVADAAIHSPVGLLLRRSEPRSAIAEQCFAEARGLFQAS	not soluble
MFKDFFNRTKKKKYLTVQDSKNNDVPAGIMTKCPKCKKIMYTKELAENLNVCFNCDHHIALTAYKRIEAISDEGSFTEFDKGMTSANPLDFPSYLEKIEKDQQKTGLKEAVVTGTAQLDGMKFGVAVMDSRFRMGSMGSVIGEKICRIIDYCTENRLPFILFSASGGARMQEGIISLMQMGKTSVSLKRHSDAGLLYISYLTHPTTGGVSASFASVGDINLSEPKALIGFAGRRVIEQTINEKLPDDFQTAEFLLEHGQLDKVVHRNDMRQTLSEILKIHQEVTK	soluble
MCGRFAYIASYDKLKYQFHLANAIEVPPRFNISPGADVLCLVETDGHKIQCVLLRWGFIPSWATDRKKLGNLINARAETVFEKPTFRQSIKSKRCLIPMSGFYEWRQEDGVKQPYFFQKKNHDLLAVAAIRDTWQQSDEVIHSCCLITTDANAFMQPVHNRMPVILGEEAQAIWLNNTQYDKAQLMALMKPYPYEDLEGYRVTTLVNKANFDHPLAMEPLSELEHHHHHH	soluble
MTLLTVKHLTITDTWTDQPLVSDVNFTLTKGETLGVIGESGSGKSITCKSIIGLNPERLGVTGEIIFDGTSMLSLSESQLKKYRGKDIAMVMQQGSRAFDPSTTVGKQMFETMKVHTSMSTQEIEKTLIEYMDYLSLKDPKRILKSYPYMLSGGMLQRLMIALALALKPKLIIADEPTTALDTITQYDVLEAFIDIKKHFDCAMIFISHDLTVINKIADRVVVMKNGQLIEQGTRESVLHHPEHVYTKYLLSTKKKINDHFKHVMRGDVHD	not soluble
MLDLIQTRRDLHQIPEIGLEEFKTQAYLLDVIEKLTTGKDFVQIRTWRTGILVYLQGSQPERTIGWRTDIDGLPIVEQTGLPFASQHQGRMHACVHDFHMTIALGCLERALEEQPKNNLLFLFQPAEENEAGGMLMYEDGAFGDWLPDQFYGLHVRPDLKVGQIATNTHTLFAGTCEVKIRFKGKGGHAAFPHEANDALVAASYFVTQVQSVVSRNVNPIEGAVVTFGVFQAGTTNNVITDTAFLHGTIRALTQDMSLLVQKRVKTVAEGVAAAFDMEVEVELKQGGYLPVENNPALARELMDFFDEKDGIELIDIEPAMTGEDFGYLLSKVDGVMFWLGIDSPYALHHPQMSPKEEVLAIGVAAVSSFLKKKAAE	soluble
GSRIAKRTAINKTKKADVKAIADAWQINGEKELELLQQIAQKPGALRILNHSLRLAAMTAHGKGERVNEDYLRQAFRELDLDVDISTLLRN	soluble
MGSDKIHHHHHHMERAMKILAHRGWWLEPVEKNSETAFRRAFENGFGVETDTRDQNGVLKIAHDMPVGDQVMDLDYFLDLHKSYAGSGTIAMNIKADGLHKALRASLEGAGITDLFCFDMAVPDAIGYLNNGFITYTRHSELEPLPPFYDKAQGVWLDAFYSDWITPDVIQKHLDAGKKVALVSPELHGRDHTAAWDVWGDLTGDDISICTDLPHLAAEKWG	not soluble
MAHHHHHHMSTDIPVNDNETNSSFKLKSEINSIENELKNWFLKRRLNMEINYSLKKLFDSYNFVGLSINNNINLKDKMLWYDIVNGKPELEDTLSMDAKEYKADQYSYLWNKSTTIDNACRLVGSIYFRCLKNNFQLKKSEREHKCIQNFINFNNCRNALKLQQANNIKDSLIKQNMEDNIAKALFERRSLLLDMLEDFK	not soluble
MAFANFRRILRLSTFEKRKSREYEHVRRDLDPNEVWEIVGELGDGAFGKVYKAKNKETGALAAAKVIETKSEEELEDYIVEIEILATCDHPYIVKLLGAYYHDGKLWIMIEFCPGGAVDAIMLELDRGLTEPQIQVVCRQMLEALNFLHSKRIIHRDLKAGNVLMTLEGDIRLADFGVSAKNLKTLQKRDSFIGTPYWMAPEVVMCETMKDTPYDYKADIWSLGITLIEMAQIEPPHHELNPMRVLLKIAKSDPPTLLTPSKWSVEFRDFLKIALDKNPETRPSAAQLLEHPFVSSITSNKALRELVAEAKAEVMEEIEDGRDEGEEEDAVDAASTLENHTQNSSEVSPPSLNADKPLEESPSTPLAPSQSQDSVNEPCSQPSGDRSLQTTSPPVVAPGNENGLAVPVPLRKSRPVSMDARIQVAQEKQVAEQGGDLSPAANRSQKASQSRPNSSALETLGGEKLANGSLEPPAQAAPGPSKRDSDCSSLCTSESMDYGTNLSTDLSLNKEMGSLSIKDPKLYKKTLKRTRKFVVDGVEVSITTSKIISEDEKKDEEMRFLRRQELRELRLLQKEEHRNQTQLSNKHELQLEQMHKRFEQEINAKKKFFDTELENLERQQKQQVEKMEQDHAVRRREEARRIRLEQDRDYTRFQEQLKLMKKEVKNEVEKLPRQQRKESMKQKMEEHTQKKQLLDRDFVAKQKEDLELAMKRLTTDNRREICDKERECLMKKQELLRDREAALWEMEEHQLQERHQLVKQQLKDQYFLQRHELLRKHEKEREQMQRYNQRMIEQLKVRQQQEKARLPKIQRSEGKTRMAMYKKSLHINGGGSAAEQREKIKQFSQQEEKRQKSERLQQQQKHENQMRDMLAQCESNMSELQQLQNEKCHLLVEHETQKLKALDESHNQNLKEWRDKLRPRKKALEEDLNQKKREQEMFFKLSEEAECPNPSTPSKAAKFFPYSSADAS	soluble
MSVLEGINSKALKTGNAGKNLKFKKIGDLPPPSPSPNTFRIYSMRFCPAAQRALIYASVKKIPSEVININLQQKPDWYFTKNYKGQVPTLEHAEGKKLVIESAVIPEYLDDIFPETKILPSDPYEKVQQKLLLERLSDQLTPAFGRVFRAIKNPEELKEKFESILKAFEEAESLLEGAFYSGTSSPGFVDYLIYPSFQRVYWLTFLLEIFPLPSDNFPGPGYPKLSQWFKAITAIPEVAAASQSTENGVGSCKEYMKGLPYFDYGL	not soluble
